Patent publication US20100111970A1 (published 2010)

Tests used:
[1] = target: T1, human nerve growth factor (NGF) (human, UniProt P01138 122-241); experiment: BIAcore SPR; KD calculated from koff using kon 4e4 M^-1s^-1
T1 construct: Immobilized on CM5 chip in BIAcore assays; also called human NGF; hNGF
Description: (§1) Affinities of anti-NGF Fabs and monoclonal antibodies were determined using the BIAcore3000™ surface plasmon resonance (SPR) system (BIAcore, INC, Piscaway N.J.). CM5 chips were activated with N-ethyl-N′-(3-dimethylaminopropyl)-carbodiinide hydrochloride (EDC) and N-hydroxysuccinimide (NHS) according to the supplier's instructions. Human NGF was diluted into 10 mM sodium acetate pH 4.0 and injected over the activated chip at a concentration of 0.005 mg/mL. Using variable flow time across the individual chip channels, two ranges of antigen density were achieved: 100-200 response units (RU) for detailed kinetic studies and 500-600 RU for screening assays. The chip was blocked with ethanolamine. […] HBS-EP buffer (0.01M HEPES, pH 7.4, 0.15 NaCl, 3 mM EDTA, 0.005% Surfactant […]) was used as running buffer for all the BIAcore assays.
(§2) For affinity screening experiments, each library was further paired with the corresponding CDR-grafted light or heavy chain (for example, the H1/H2 library was paired with CDR-grafted light chain), the antibody was expressed, and affinity to human NGF of the individual clones was screened using the BIACORE surface plasmon resonance (SPR) system (BIAcore, Inc. Piscataway, N.J.) according to the manufacturer's instructions and as described above. koff, kₒₙ and KD were determined. […]

[2] = target: T1, human nerve growth factor (NGF); experiment: BIAcore SPR screening of Fab clones on immobilized human NGF
Description: as §1, §2

T1 sequence (P01138 122-241 limits assumed): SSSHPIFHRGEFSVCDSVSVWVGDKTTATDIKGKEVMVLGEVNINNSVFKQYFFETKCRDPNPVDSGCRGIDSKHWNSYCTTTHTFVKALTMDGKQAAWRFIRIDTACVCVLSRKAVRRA

B1: light chain library clone L81 (Fab, V domains shown)
VH: QVQLQESGPGLVKPSETLSLTCTVSGFSLIGYDINWIRQPPGKGLEWIGMIWGDGTTDYNSALKSRVTISKDTSKNQFSLKLSSVTAADTAVYYCARGGYYYGTSYYFDYWGQGTLVTVS
VL: DIQMTQSPSSLSASVGDRVTITCRAFQAISNQLNWYQQKPGKAPKLLIYYTSRFHTGVPSRFSGSGSGTDFTFTISSLQPEDIATYYCQQSKTLPYTFGQGTKLEIKR
notes: Substitutions derived by comparing printed CDRs with the 8L2-6D5 control
**Q.** What does the source list for B1?
**A.** Kd [1]: 0.018 µM; koff [2]: 0.00074 s⁻¹
